Measurements from the nanobody polyreactivity screen of Harvey et al. (2022).

assay: yeast display, Sf9 membrane polyspecificity reagent, FACS + sequencing; frameworks hold sequencing errors
Outline: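 Using colony PCR, genes from sorted yeast display clones were amplified, then sequenced on MiSeq at 2 × 250 and filtered by CDR length. The clones had been stained with 10% biotinylated, detergent-solubilized Sf9 membrane reagent for 1 hour at 4 °C and sorted by FACS into low and high (top ~1%) gates on anti-HA and streptavidin fluorescence. Polyreactivity labels come from the gate of origin.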

| Sequence | polyreactivity (PSR sort gate) |
| --- | --- |
| QVQLVESGGGLVQAGGSLRLSCAASGITFSEYAMGWYRQAPGKERELVAAITSGGNTYYADSVKGRFTISRDNAKNTVYLQMNSLKPEDTAVYYCAATFSSAFAYYYWGQGTQVTVSS | low polyreactivity |
| QVQLVESGGGLVQAGGSLRLSCAASGITFSFYAMGWYRQAPGKERELVATIDSGGSTNYADSVKGRFTISRDNAKNTVYLQMNSLKPEDTAVYYCAADGVWYYYDMDYWGQGTQVTVSS | low polyreactivity |
| QVQLVESGGGLVQAGGSLRLSCAASGITFSGYGMGWYRQAPGKERELVAAISRSGGSTYYADSVKGRFTISRDNAKNTVYLQMNSLKPEDTAVYYCATASRTSRTGWAGYYWGQGTQVTVSS | high polyreactivity |
| QVQLVESGGGLVQAGGSLRLSCAASGITFSHNAMGWYRQAPGKERELVAAITRSGGSTYYADSVKGRFTISRDNAKNTVYLQMNCLKPEDTAVYYCATEDYYRQYGYWSLSRMDHWGQGTQVTVSS | low polyreactivity |
| QVQLVESGGGLVQAGGSLRLSCAASGITFSHNAMGWYRQAPGKERELVAAITRSGRSTYYADSVKGRFTISRDNAKNTVYLQMNSLKPEDTAVYYCSTDNHQRRAGSGYWGQGTQVTVSS | low polyreactivity |
| QVQLVESGGGLVQAGGSLRLSCAASGITFSKYAMGWYRQAPGKERELVAAITTSGVSTYYADSVKGRFTISRDNAKNTVYLQMNSLKPEDTAVYYCATELGWGGFYKYGHASQFDYWGQGTQVTVSS | low polyreactivity |
| QVQLVESGGGLVQAGGSLRLSCAASGITFSPYTMGWYRQAPGKERELVAAINSGGRTNYADSVKGRFTISRDNAKNTVYLQMNSLKPEDTAVYYCTKRGHPARLGYYYWGQGTQVTVSS | low polyreactivity |
| QVQLVESGGGLVQAGGSLRLSCAASGITFSPYTRGWYRQATGKERELVAAINDGAITYYADSVKGRFTISRDNAKNTVYLQMNSQKPEDTAVYYCAAAAWGTDPFSTDYASYDYWGQVTQVTVSS | low polyreactivity |
| QVQLVESGGGLVQAGGSLRLSCAASGITFSQYAMGWYRPAPGKERELVAAISWSGVRTYYADSVKGRFTISRDNSKNTVYLQMNSLKPEDTAVYYCAAVPVYYGYDYWGQGTQVTVSS | high polyreactivity |
| QVQLVESGGGLVQAGGSLRLSCAASGITFSRNAMGWSRQARGKERELVAAISRGGSTNYADSVKGRFTISRDNAKNTVYLQMNSLKPEDTAVYYCNAPGYLSWRFYGVKRNYWGQGTQVTVSS | high polyreactivity |
| QVQLVESGGGLVQAGGSLRLSCAASGITFSRNAMGWYRQAPGKERELVATITSGGSTNYADSVKGRFTISRDNAKNTVYLQMNSLKPEDTAVYYCAVDYDSYWYGTYVNEYDYWGQGTQVTVSS | low polyreactivity |
| QVQLVESGGGLVQAGGSLRLSCAASGITFSRNGMGWYRQAPGKERELVAAISTSGDSTDYADSVKGRFTISRDNAKNTVYLQMNSLKPEDTAVYYCATEWSYYNYGYDYWGQGTQVTVSS | low polyreactivity |
| QVQLVESGGGLVQAGGSLRLSCAASGITFSRYTMGWYRQAPGKERELVAGISSRGGSTYYADSVKGRFTISRDNAKNTVYLQMNSLKPEDTAVYYCAADGEHYPWYYYWGQGTQVTVSS | high polyreactivity |
| QVQLVESGGGLVQAGGSLRLSCAASGITFSSYVMGWYRQAPGKERELVAAISRSGGITYYADSVKGRFTISRDNAKNTVYIQMNSLKPEDTAVYYCAATFPAGWSYANYYYWGQGTQVTVSS | high polyreactivity |
| QVQLVESGGGLVQAGGSLRLSCAASGITFSTYAMGWYRQAPGKERELVAAINWSGGSTRYADSVKGRFTISRDNAKNTVYLQMNSLKPADTAVYYCAAEVQGQVGEFDYWGQGTQVTVSS | low polyreactivity |
| QVQLVESGGGLVQAGGSLRLSCAASGITFSVNAMGWYRQAPGKEREFVAAISSSGGSTYYADSLKGRFTISRDNAKNTVYLQMNSLKPEDTAVYYCAASGRVQRQHYRPYPYGYWGQGTQVTVSS | high polyreactivity |
| QVQLVESGGGLVQAGGSLRLSCAASGITFSVYAMGWYRQAPGKERELVASISSGGTSTYYADSVKGRFTISRDNAKNNVYLQMNSLKTEDSAVYYCAAYSYYTGDQYSYDYWGQGTQVTVSS | low polyreactivity |
| QVQLVESGGGLVQAGGSLRLSCAASGITFSWNAMGRYRQAPGKERELVASITENTGCTYYADSVKGRFTISRDNAKNTVYLQMNSLKPEDTAVDYCWYTQNTLGNYWGQGTQVTVSS | low polyreactivity |
| QVQLVESGGGLVQAGGSLRLSCAASGITFSYNAMGWYRQAPGKERELVAAITWSGDSTYYADSVKGRFTISRDNAKNTVYLQMNSLKPEDTAVYYCNARYLRLRYPYTDEYNYWGQGTQVTVSS | low polyreactivity |
| QVQLVESGGGLVQAGGSLRLSCAASGITFSYNVMGWYRQAPGKEREFVAAISDGGSTYYADSVKGRFTISRDNAKNTVYLQMNSLKPEDTAVYFCAKGYRYTYSQQVIYDYYYWGQGTQVTVSS | low polyreactivity |
| QVQLVESGGGLVQAGGSLRLSCAASGITFSYYAMGWYRQAPGKEMELVAAISGRDTRTYYADSVKGRFTISRDNAKNTVYLQMNSLKPEDTAVYYCNAVRKHLLKYDYWGQGTQVTVSS | high polyreactivity |

| Sequence | polyreactivity (PSR sort gate) |
| --- | --- |
| QVQLVESGGGLVQAGGSLRLSCAASGITFSYYAMGWYRQAPGKERELVAAITGGSTYYADSVKGRFTISRDNAKNTVYLQMNSLKPEDTAVYYCNADSLFEYLDYDYWGQGTQVTVSS | low polyreactivity |
| QVQLVESGGGLVQAGGSLRLSCAASGITFTDNTMGWYRQAPGKERELVAAISRSGTSTYYADSVKGRFTISRDNAKNTVYLQMNSLKPEDTAVYYCAALSYVPSPYYYWGQGTQVTVSS | high polyreactivity |
| QVQLVESGGGLVQAGGSLRLSCAASGITFTEYAMGWYRQAPGKERELVAAITGSGTSTYYADSVKGRFTISRDNAKNTVYLQMNSLKPEDTAVYYCAAERKNKYDYWGQGTQVTVSS | high polyreactivity |
| QVQLVESGGGLVQAGGSLRLSCAASGITFTFNAMGWYRQAPGKERELVAAISSTTSTKYADSVKGRFTISRDNAKNTVYLQMNSLKPEDTAVYYCALTYLLRYYGYRDDEYDYWGQGTQVTVSS | low polyreactivity |
| QVQLVESGGGLVQAGGSLRLSCAASGITFTPNAMGWYRQAPGKEREFVAAITYSGGSTYYADSVKGRFTISRDNAKNTVYLQMNSLKPEDTAVYYCAADSFAWWGSRYDYWGQGTQVTVSS | low polyreactivity |
| QVQLVESGGGLVQAGGSLRLSCAASGITFTQYAMGWYRQAPGKELELVAAITSSGGSTYYADSVKERFTISRDNAKNTVYLQMNSLKPEDTAVYYFIAVRRRQSDYWGQGTQVTVSS | high polyreactivity |
| QVQLVESGGGLVQAGGSLRLSCAASGITFTQYAMGWYRQAPGKERELVASITSSGDNTYYADSVKGRFTISRDNAKNTVYLQMNSLKPEDTAVYYCNARYKWSRRKPWGYWGQGTQVTVSS | high polyreactivity |
| QVQLVESGGGLVQAGGSLRLSCAASGITFTRYGMGWYRQAPGKERELVAVISSSGGRTYYADSVKGRFTISRDNAKNTVYLQMNSLKPEDTAVYYCATVRVLAKYRPKMDYWGQGTQVTVSS | high polyreactivity |
| QVQLVESGGGLVQAGGSLRLSCAASGITFTSYAMGWYRQAPGKERELVAAISSSGVRTYYADSVKGRFTISRDYAKNTVYLQMKSLKPEDTAVYYCATRRRVLYGYDYWGQGTQVTVSS | high polyreactivity |
| QVQLVESGGGLVQAGGSLRLSCAASGITFTSYVMGWYRQAPGKERELVAAIRWSGGRTYYADSVKGRFTISRDNAKNTVYLQINSLKPEDTAVYYCAAYPSYYGDSGLRYDYWGQGTQVTVSS | high polyreactivity |
| QVQLVESGGGLVQAGGSLRLSCAASGITFTSYVMGWYRQAPGKERELVAAIRWSGGRTYYADSVKGRFTITRDNAKNTVYLQMNSLKPEDTAGYYCAAKRKPRPSYRYGYWGQGTQVTVSS | high polyreactivity |
| QVQLVESGGGLVQAGGSLRLSCAASGITFTYYAMGWYRQAPGKERELVAAISYSGGSTYYADSVKGRFTISRDNAKITGYLQMNSLKREDTAVYYCATDARDGHDYWGQGTQVTVSS | high polyreactivity |
| QVQLVESGGGLVQAGGSLRLSCAASGITFVFYAMGWYRQAPGKEREFVAGITWRGGRTYYADSVKGRFTISRDNAKNTVYLQMNSLKPEDTAVYYCNARSVVLTGGDYWGQGTQVTVSS | high polyreactivity |
| QVQLVESGGGLVQAGGSLRLSCAASGITFVFYAMGWYRQAPGKERELVAAISWSGGITYYADSVKGRFTISRDNAKNTVYLQMNSLKPEDTAFYYCAATKRQTKYYGGTTDSIMYYWGQGTQVTVSS | low polyreactivity |
| QVQLVESGGGLVQAGGSLRLSCAASGITFVGNAMGGYRQATGKERELVAVIRGNGGSTYYADSVKGRFTISRDNAKNTVYLQMNSLKPEDTAVYYCAAAAYYADFDYLGQGTQVTVSS | low polyreactivity |
| QVQLVESGGGLVQAGGSLRLSCAASGITFVINGMGWYRQAPGKESELLAAISKSGRTYYADSVKGRFTISRDNAKNTVFIQMNSLTPEDSAVYYCNNVPYPSNDYWGQGTQVTVSS | high polyreactivity |
| QVQLVESGGGLVQAGGSLRLSCAASGITFVIYAMGWYRQAPGKEREFVAGINWSTGSTYYADTVKGRFTISRDYAKNTVYLQMNSLKPEDTAVYYFNVDAIINAIGAYWYDFDYWGQGTQVTVSS | low polyreactivity |
| QVQLVESGGGLVQAGGSLRLSCAASGITFVKNAMGWYRQAPGKERELVARIRIGGSTSYADSVKGRFTFSRDNAKNTVYLQMNSLKPEDTAVYYCARYAGRLSYRYEYWGQGTQVTVSS | high polyreactivity |
| QVQLVESGGGLVQAGGSLRLSCAASGITFVKNAMGWYRQAPGKERELVARIRIGGSTSYADSVKGRFTISRDNAKNTVYLQRNSLKPEDNAVYYCARYAGRLSYRYEYWGQGTQVTVSS | high polyreactivity |
| QVQLVESGGGLVQAGGSLRLSCAASGITFVKYAMGWYRQAPGKERELVAAISGSGGSTSYADSVKGRFTISRDNAKNTVYLQMNSLKPEDTAVYYCNKAIVRYPKTRDYWGQGTQVTVSS | low polyreactivity |
